Source: patent US20100093618A1

Target: FLAG-Tat (p3XFLAG-CMV-Tat, wild type) (HIV-1) (UniProt P04608)
Test: cell-based or functional assay

HA-IκB-α 72-287 (pCMV4-HA-IκB-α 72-287, expressed in transfected cells) (from UniProt P25963 72-287)
translocation of Tat from the nucleus to the cytoplasm (confocal microscopy, HeLa cells) (% of the analyzed cells): 50
